US20240408138A1 (UNIVERSITY OF CHICAGO, published 2024)
Positions count from the first letter of the chain named.

T1: INCENP N-terminal domain (1-58), His- and Avi-tagged, biotinylated (UniProt Q9NQS7 1-58, biotinylated (Avi-tag, co-expressed E. coli biotin ligase BirA))
T1 construct: range 1-58; Expressed in E. coli BL21(DE3); also called INC-N; INCENP N-terminal domain (AA 1-58); not shown: His-tag and Avi-tag
T1 sequence (looked up): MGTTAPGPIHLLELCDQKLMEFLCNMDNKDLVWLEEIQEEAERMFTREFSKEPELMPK

T2: INCENP on the surface of murine tumor cells (Mus musculus, UniProt Q9WU62)
T2 construct: kept apart from m4 because the cells are murine; also called cell surface INCENP on CT26, MC38 and 4T1 cells
T2 sequence (single chain, looked up): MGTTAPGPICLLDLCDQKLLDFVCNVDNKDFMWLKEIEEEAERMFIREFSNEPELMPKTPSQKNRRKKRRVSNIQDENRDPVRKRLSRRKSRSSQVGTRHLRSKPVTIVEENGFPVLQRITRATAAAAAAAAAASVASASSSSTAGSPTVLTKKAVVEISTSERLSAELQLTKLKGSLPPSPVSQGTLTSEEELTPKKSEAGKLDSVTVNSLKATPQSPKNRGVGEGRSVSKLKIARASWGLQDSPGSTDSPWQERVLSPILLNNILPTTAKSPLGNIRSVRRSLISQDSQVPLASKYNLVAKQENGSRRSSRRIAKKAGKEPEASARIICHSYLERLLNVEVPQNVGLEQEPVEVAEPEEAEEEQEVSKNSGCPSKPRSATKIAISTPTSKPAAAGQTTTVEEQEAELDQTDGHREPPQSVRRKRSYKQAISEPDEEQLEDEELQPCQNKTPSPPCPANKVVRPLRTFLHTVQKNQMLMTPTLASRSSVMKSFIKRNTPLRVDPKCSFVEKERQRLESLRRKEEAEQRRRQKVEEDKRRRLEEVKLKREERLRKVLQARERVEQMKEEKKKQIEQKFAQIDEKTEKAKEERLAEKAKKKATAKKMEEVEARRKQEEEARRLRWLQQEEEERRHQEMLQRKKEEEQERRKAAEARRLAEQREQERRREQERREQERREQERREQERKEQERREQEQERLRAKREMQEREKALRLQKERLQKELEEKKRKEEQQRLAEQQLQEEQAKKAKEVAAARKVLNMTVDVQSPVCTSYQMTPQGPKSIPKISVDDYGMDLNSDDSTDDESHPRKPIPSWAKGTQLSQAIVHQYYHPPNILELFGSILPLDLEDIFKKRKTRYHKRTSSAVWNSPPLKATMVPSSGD

B1: INC-N-16 Fab (Fab, V domains shown)
VH: EVQLVESGGGLVQPGGSLRLSCAASGFNFYSSSIHWVRQAPGKGLEWVASIYPYSGYTSYADSVKGRFTISADTSKNTAYLQMNSLRAEDTAVYYCARAWIYAMDYWGQGTLVTVSS
VL: DIQMTQSPSSLSASVGDRVTITCRASQSVSSAVAWYQQKPGKAPKLLIYSASSLYSGVPSRFSGSRSGTDFTLTISSLQPEDFATYYCQQWDQWLITFGQGTKVEIKR
B2: INC-N-01 (Fab, V domains shown)
VH: EVQLVESGGGLVQPGGSLRLSCAASGFNVYYYSIHWVRQAPGKGLEWVASIYPSSGSTYYADSVKGRFTISADTSKNTAYLQMNSLRAEDTAVYYCARQWLYMLWPMWGLDYWGQGTLVTVSS
VL: B1 VL with W91S, D92Y, Q93Y, L95P
notes: also called INC-N-01 Fab
B3: INC-N-34 (Fab, V domains shown)
VH: EVQLVESGGGLVQPGGSLRLSCAASGFNVSSSSIHWVRQAPGKGLEWVASIYPSSGYTSYADSVKGRFTISADTSKNTAYLQMNSLRAEDTAVYYCARKLAYYWGAQWSYSGYKGMDYWGQGTLVTVSS
VL: B1 VL with W91S, D92Y, Q93W, W94Y, L95P
notes: also called INC-N-34 Fab
B4: INC-N-35 (Fab, V domains shown)
VH: EVQLVESGGGLVQPGGSLRLSCAASGFNFYSYSIHWVRQAPGKGLEWVASISSSSGSTSYADSVKGRFTISADTSKNTAYLQMNSLRAEDTAVYYCARHFHNPYSWDYWYGWYTALDYWGQGTLVTVSS
VL: B1 VL with W91S, D92S, Q93S, W94S
notes: also called INC-N-35 Fab
B5: INC-N-19 (Fab, V domains shown)
VH: EVQLVESGGGLVQPGGSLRLSCAASGFNVYYSYIHWVRQAPGKGLEWVASIYPYSGYTSYADSVKGRFTISADTSKNTAYLQMNSLRAEDTAVYYCARWRWPGLQFGYGMDYWGQGTLVTVSS
VL: B1 VL with W91S, D92Y, Q93W, L95P, I96L
notes: also called INC-N-19 Fab
B6: INC-N-14 (Fab, V domains shown)
VH: EVQLVESGGGLVQPGGSLRLSCAASGFNVSSYSIHWVRQAPGKGLEWVASIYPSSGSTYYADSVKGRFTISADTSKNTAYLQMNSLRAEDTAVYYCARKGYGWFYYYIEWYSPYAFDYWGQGTLVTVSS
VL: B1 VL with W91S, D92Y, Q93Y, W94Y, L95P, I96V
notes: light chain shared with INC-N-18; also called INC-N-14 Fab
B7: INC-N-12 (Fab, V domains shown)
VH: EVQLVESGGGLVQPGGSLRLSCAASGFNFSSSSIHWVRQAPGKGLEWVASIYSYSGSTYYADSVKGRFTISADTSKNTAYLQMNSLRAEDTAVYYCARYHWYYYWYWGGVSPAMDYWGQGTLVTVSS
VL: B1 VL with W91M, D92R, Q93Y, W94Y, L95P
notes: also called INC-N-12 Fab
B8: INC-N-08 (Fab, V domains shown)
VH: EVQLVESGGGLVQPGGSLRLSCAASGFNFSSSSIHWVRQAPGKGLEWVASIYSYYGSTSYADSVKGRFTISADTSKNTAYLQMNSLRAEDTAVYYCARWMYKGYIFYQYFGLDYWGQGTLVTVSS
VL: B1 VL with W91S, D92F, Q93S, W94N
notes: also called INC-N-08 Fab
B9: INC-N-06 (Fab, V domains shown)
VH: EVQLVESGGGLVQPGGSLRLSCAASGFNISYSSIHWVRQAPGKGLEWVASIYPYSGSTYYADSVKGRFTISADTSKNTAYLQMNSLRAEDTAVYYCARWSLYGKWYYWWYGLDYWGQGTLVTVSS
VL: B1 VL with W91G, D92S, Q93Y, W94Y, L95P
notes: also called INC-N-06 Fab
B10: INC-N-04 (Fab, V domains shown)
VH: EVQLVESGGGLVQPGGSLRLSCAASGFNFYSYSIHWVRQAPGKGLEWVASIYSYSGYTYYADSVKGRFTISADTSKNTAYLQMNSLRAEDTAVYYCARYPLYFQYRKYYGIDYWGQGTLVTVSS
VL: B1 VL with W91G, D92W, Q93Y, W94Y, L95P
notes: also called INC-N-04 Fab
B11: INC-N-13 (Fab, V domains shown)
VH: EVQLVESGGGLVQPGGSLRLSCAASGFNVSYYSIHWVRQAPGKGLEWVASIYPYSGSTYYADSVKGRFTISADTSKNTAYLQMNSLRAEDTAVYYCARYPYYVYWYYWWYYALDYWGQGTLVTVSS
VL: B1 VL with W91S, D92W, Q93S, W94Y, L95P
notes: also called INC-N-13 Fab
B12: INC-N-11 (Fab, V domains shown)
VH: EVQLVESGGGLVQPGGSLRLSCAASGFNVSYYSIHWVRQAPGKGLEWVASIYPSSGSTYYADSVKGRFTISADTSKNTAYLQMNSLRAEDTAVYYCARMYPSWMLYPYYMFAGMDYWGQGTLVTVSS
VL: B1 VL with W91R, D92W, Q93V, W94Y, L95P
notes: also called INC-N-11 Fab
B13: INC-N-38 (Fab, V domains shown)
VH: EVQLVESGGGLVQPGGSLRLSCAASGFNVYSSSIHWVRQAPGKGLEWVAYISSYSGYTYYADSVKGRFTISADTSKNTAYLQMNSLRAEDTAVYYCARTIYSSSYFYTWFIYGAAFDYWGQGTLVTVSS
VL: B1 VL with W91S, D92W, Q93M, W94Y, L95P
notes: also called INC-N-38 Fab

Target: T1, INCENP N-terminal domain (1-58), His- …
Experiment: western blot, recombinant INC-N on SDS-PAGE / PVDF, INC-N-16 Fab as primary, anti-human F(ab')2 IgG-HRP secondary
Procedure: (§1) Membranes were stained with Ponceau S dye to verify correct transfer of the proteins, were briefly washed with ddH2O and blocked with 4% skimmed milk in TBS-T containing 0.05% Tween20 for 30 min. at RT on the shaker. […] Membranes were washed 3 times with TBS-T and incubated with secondary anti-human FAB′2 specific HRP-conjugated IgG (diluted 1:10,000 in blocking buffer) for 45 minutes at RT, shaking. Membranes were washed again 3× with TBS-T, developed with ECL chemiluminescent substrate and visualized with the Biorad imaging instrument (FIG. 11).

| Binder | binding result |
| --- | --- |
| B1 | binds |

Target: T1, INCENP N-terminal domain (1-58), His- …
Experiment: single-point protein ELISA, 200 nM Fab on 50 nM immobilised biotinylated target, protein L-HRP, A450
Procedure: To rapidly reconfirm the binding and specificity of the obtained Fabs after reformatting into the expression vectors single-point Fab ELISA was performed (FIG. 2). Briefly, 50 nM Avi-tagged targets were immobilized on the prepared NAV-coated and blocked with 0.5% BSA in PBS 96-well ELISA plates. The target coated plates were washed with appropriate buffer (TBST or PBST) and were incubated with 200 nM Fab for 20 minutes and then washed. The washed plates were incubated with protein L conjugated with HRP (1:5000 diluted in TBST) for 30 minutes. Plates were washed and the reaction was developed using the TMB chromogenic substrate (Thermofisher) and subsequently quenched with 1M HCl. Absorbance was read at 450 nm on Epoch plate reader.

| Binder | binding result |
| --- | --- |
| B2 | binds |
| B3 | binds |
| B4 | binds |
| B5 | binds |
| B6 | binds |
| B7 | binds |
| B8 | binds |

Target: T2, INCENP on the surface of murine tumor …
Experiment: flow cytometry, 200 nM Fab on CT26 murine colorectal carcinoma cells, anti-human F(ab')2-A647 secondary, MFI [CT26]
Procedure: (§2) Human or murine tumor cells were trypsinized, washed and resuspended in Flow buffer (1×PBS supplemented with 2% FBS) and added to a 96-well plate (#3799, Costar). 200 nM primary CPC Fab was mixed with 0.5M cells and incubated at 37 C for 20 min. Cells were washed with Flow buffer and stained with anti-human-FAB′2-A647 secondary antibody (#109-605-006, Jackson, 1:200) for 20 min at room temperature and washed again. Samples were analyzed by flow cytometry using CytoFLEX (Beckman Coulter) and mean fluorescence intensity (MFI) data was extracted using the FlowJo software (FIG. 4A-E, FIG. 5). Human peripheral blood mononuclear cells (PBMCs) derived from a single patient were used as a source of healthy human cells. PBMCs were counted, split and spun down 400×g 5 min. Cells were resuspended in Flow buffer (1×PBS supplemented with 2% FBS) and pre-incubated with TruStain FcX (1:20, Biolegend 422302) for 10 min at 37 C, followed by 200 nM primary Fab incubation at 37 for 20 min. Cells were washed twice and stained with secondary antibody (Alexa Fluor 647 AffiniPure Goat Anti-Human IgG, F(ab′)2 fragment specific, #109-605-006, Jackson, 1:200), for 20 min at RT, washed twice and analyzed by using CytoFLEX (Beckman Coulter). Mean fluorescence intensity (MFI) data was extracted using the FlowJo software (FIG. 4F).

| Binder | binding result |
| --- | --- |
| B9 | binds |

Target: T1, INCENP N-terminal domain (1-58), His- …
Experiment: SPR, target immobilised on NTA chip via His-tag, two-fold Fab dilutions from 100 nM, 1:1 Langmuir fit
Procedure: The targets were immobilized onto a nitrilotriacetic acid (NTA) sensor chip via His-tag. 2-fold serial dilutions of the Fab were injected following ligand immobilization on the sensor chip. For each kinetic assay at least five dilutions of the Fab were tested. The data were fitted using 1:1 Langmuir Model to obtain the on-rate, off-rate and the affinity (KD) of the Fab-target interaction. (FIG. 3).

| Binder | Kd | koff | kon |
| --- | --- | --- | --- |
| B10 | 14.8 nM | 0.011 s⁻¹ | 760000 M⁻¹ s⁻¹ |
| B9 | 6.3 nM | 0.0049 s⁻¹ | 770000 M⁻¹ s⁻¹ |
| B11 | 20 nM | 0.0029 s⁻¹ | 140000 M⁻¹ s⁻¹ |
| B12 | 4.2 nM | 0.0031 s⁻¹ | 740000 M⁻¹ s⁻¹ |
| B13 | 1.2 nM | 0.0005 s⁻¹ | 420000 M⁻¹ s⁻¹ |

Target: T3, INCENP displayed on the surface of cancer cells (UniProt Q9NQS7 1-918, limits assumed)
T3 construct: whole, on cells; The sentence says 'various cancer cell lines'; also called cell surface INCENP
Experiment: flow cytometry, 200 nM Fab on MDA-231 breast cancer cells, anti-human F(ab')2-A647 secondary, MFI
Procedure: as §2

| Binder | binding result |
| --- | --- |
| B4 | binds |

Target: T3, INCENP displayed on the surface of …
Experiment: flow cytometry, 200 nM Fab on MCF7 breast cancer cells, anti-human F(ab')2-A647 secondary, MFI
Procedure: as §2

| Binder | binding result |
| --- | --- |
| B3 | binds |

Target: T4, INCENP FL (Homo sapiens, UniProt Q9NQS7)
T4 construct: full length, denatured on SDS-PAGE and blotted; also called full-length INCENP in HeLa cell lysate
Experiment: western blot, HeLa cell lysate on SDS-PAGE / PVDF, INC-N-16 Fab as primary, anti-human F(ab')2 IgG-HRP secondary
Procedure: as §1

| Binder | binding result |
| --- | --- |
| B1 | binds |
